Patent US8822645B2, “Prostaglandin E2 dual variable domain immunoglobulins and uses thereof” (AbbVie Inc., priority 2008, dated 2014)
Where two headings read alike, the source gives them in different places.

What was measured:
[1] = tested on: PGE2 / human EP4 receptor in HEK293 Gα16 cells; assay: EP4 bioassay (Ca++ flux, neutralization of PGE2); assay type: cell-based; conditions: EP4 bioassay, Ca++ flux
Method: The ability of anti-PGE2 antibodies and anti-PGE2 containing DVD-Ig molecules to inhibit the cellular response of PGE2 was determined in a Ca++ flux assay in HEK293 Gα16 cells stably transfected with human EP4 receptor. Cells were plated in black/clear poly-D-lysine plates, (Corning #3667, Corning, N.Y.) and incubated with Ca++-sensitive dye (Molecular Devices) for 90 minutes. Stock PGE2 (in 200 proof ethanol) was diluted with FLIPR buffer (containing 1×HBSS (Invitrogen, Carlsbad, Calif.), 20 mM HEPES (Invitrogen, Carlsbad, Calif.), 0.1% BSA (Sigma, St. Louis, Mo.) and 2.5 mM Probenecid (Sigma, St. Louis, Mo.)). Anti-PGE2 antibodies, DVD-Ig molecules or isotype matched control antibodies were also pre-diluted in FLIPR buffer. 25 μl of PGE2 or pre-incubated PGE2/antibody mixture or pre-incubated PGE2/DVD-Ig molecule mixture was added to the wells pre-plated with cells. A dose response of PGE2 was done by a serial titration of PGE2 and was determined using FLIPR1 or Tetra (Molecular Devices). EC50 was determined using GraphPad Prism 5 (GraftPad Software, La Jolla, Calif.). […] Ca++ flux was monitored using FLIPR1 and data was analyzed using GraphPad Prism 5.
The ability of anti-PGE2 antibodies and anti-PGE2 containing DVD-Ig molecules to inhibit the cellular response of PGE2 was determined in a Ca++ flux assay using stably transfected human EP4 in HEK293 Gα16 cells. Cells were plated in black/clear Poly-D-Lysine plates, (Corning #3667) and incubated with Ca++-sensitive dye (Molecular Devices) for 90 minutes. Stock PGE2 (in 200 proof ethanol) was diluted with FLIPR buffer (containing 1×HBSS, 20 mM HEPES, 0.1% BSA and 2.5 mM Probenecid). Anti-PGE2 antibodies, DVD-Ig molecules or isotype matched control antibodies were also pre-diluted in FLIPR buffer. 25 μl of PGE2 or pre-incubated PGE2/antibody mixture or pre-incubated PGE2/DVD-Ig molecule mixture was added to the wells pre-plated with cells. A dose response of PGE2 was done by a serial titration of PGE2 and was determined using FLIPR1 or Tetra (Molecular Devices). EC50 was determined using GraphPad Prism 5. […] Ca++ flux was monitored using FLIPR1 and data was analyzed using GraphPad Prism 5.

[2] = PGE2-biotinamide ELISA (PGE2 binding)
Method: (§1) Enzyme linked immunosorbent assays to screen for anti-PGE2 antibodies or anti-PGE2 containing DVD-Ig molecules that bind prostaglandin E2 were performed as follows. ELISA plates (Costar 3369, Corning, N.Y.) were coated with 50 μl of anti-host Fc IgG (Sigma, St. Louis, Mo.) at 2 μg/ml in PBS (Invitrogen Carlsbad, Calif.). Following an overnight incubation at 4° C., the plate was blocked with 200 μl Superblock (Pierce #37535, Rockford, Ill.). The IgG or DVD-Ig containing samples were diluted to 1 μg/ml in Assay Buffer (10% Superblock in PBS containing 0.05% Surfactamps (Pierce #37535, Rockford, Ill.) and incubated on the plate at 50 μl/well for 1 hour at room temperature. Following the incubation, plates were washed four times with TTBS (Tween-Tris Buffered Solution). For PGE2 binding, PGE2-biotinamide (Cayman Chemicals, Ann Arbor, Mich.) was diluted to 30 nM and serially diluted in Assay Buffer. The titration curve was added to each IgG or DVD-Ig sample at a volume of 50 μl/well and incubated for 1 hour at room temperature. The plates were washed as previously described and 50 μl/well of 1:5000 dilution of streptavidin polyhrp40 (Fitzgerald Industries, Concord, Mass.) in Assay Buffer was added and incubated for 45 minutes at room temperature. A final wash step was performed and the plates were developed using a single step TMB system (Sigma #T8665, St. Louis, Mo.) and 2N H2SO4. Plates were read at 450 nm on a Molecular Devices Spectramax plate reader (Sunnyvale, Calif.). EC50 was determined using GraphPad Prism 5 (GraphPad Software, La Jolla, Calif.) (FIG. 2).
as §1, with “ELISA” for “Enzyme linked immunosorbent assays to screen for anti-PGE2 antibodies or anti-PGE2 containing DVD-Ig molecules that bind prostaglandin E2 were performed as follows. ELISA”, “(Invitrogen,” for “(Invitrogen”, “IgG” for “IgG or DVD-Ig”, “Solution).” for “Solution). For PGE2 binding,”, “Calif.).” for “Calif.) (FIG. 2).”

[3] = PGE2 VD in C-terminal position, read-out: C-terminal VD PGE2 Neutralization EC50
[4] = PGE2 VD in C-terminal position, read-out: Direct Bind ELISA C-terminal VD EC50
[5] = PGE2 VD in N-terminal position, read-out: N-terminal VD PGE2 Neutralization EC50
[6] = PGE2 VD in N-terminal position, read-out: Direct Bind ELISA N-terminal VD EC50

B1: DVD162: DVD-Ig construct listed in Table 4 (antibody)
VH: EVQLVESGGGLVQPGGSLRLSCAASGYTFTNYGMNWVRQAPGKGLEWVGWINTYTGEPTYAADFKRRFTFSLDTSKSTAYLQMNSLRAEDTAVYYCAKYPHYYGSSHWYFDVWGQGTLVTVSSASTKGPEVQLVQSGAEVKKPGASVKVSCKASGYTFTKYWLGWVRQAPGQGLEWMGDIYPGYDYTHYNEKFKDRVTLTTDTSTSTAYMELRSLRSDDTAVYYCARSDGSSTYWGQGTLVTVSS
VL: DIQMTQSPSSLSASVGDRVTITCSASQDISNYLNWYQQKPGKAPKVLIYFTSSLHSGVPSRFSGSGSGTDFTLTISSLQPEDFATYYCQQYSTVPWTFGQGTKVEIKRTVAAPDVLMTQTPLSLPVTPGEPASISCTSSQNIVHSNGNTYLEWYLQKPGQSPQLLIYKVSNRFSGVPDRFSGSGSGTDFTLKISRVEAEDVGVYYCFQVSHVPYTFGGGTKVEIKR
Work on B1 yielded an EC50 [1, 3] of 0.067 nM and an EC50 [2, 4] of 1.32 nM.

B2: DVD158: DVD-Ig construct listed in Table 4 (antibody)
VH: QVQLVESGGGVVQPGRSLRLSCAASGFTFSVYGMNWVRQAPGKGLEWVAIIWYDGDNQYYADSVKGRFTISRDNSKNTLYLQMNGLRAEDTAVYYCARDLRTGPFDYWGQGTLVTVSSASTKGPEVQLVQSGAEVKKPGASVKVSCKASGYTFTKYWLGWVRQAPGQGLEWMGDIYPGYDYTHYNEKFKDRVTLTTDTSTSTAYMELRSLRSDDTAVYYCARSDGSSTYWGQGTLVTVSS
VL: EIVLTQSPDFQSVTPKEKVTITCRASQSIGSSLHWYQQKPDQSPKLLIKYASQSFSGVPSRFSGSGSGTDFTLTINSLEAEDAAAYYCHQSSSLPFTFGPGTKVDIKRTVAAPDVLMTQTPLSLPVTPGEPASISCTSSQNIVHSNGNTYLEWYLQKPGQSPQLLIYKVSNRFSGVPDRFSGSGSGTDFTLKISRVEAEDVGVYYCFQVSHVPYTFGGGTKVEIKR
Work on B2 yielded an EC50 [1, 3] of 0.21 nM and an EC50 [2, 4] of 1.14 nM.

B3: DVD161: DVD-Ig construct listed in Table 4 (antibody)
VH: EVQLVQSGAEVKKPGASVKVSCKASGYTFTKYWLGWVRQAPGQGLEWMGDIYPGYDYTHYNEKFKDRVTLTTDTSTSTAYMELRSLRSDDTAVYYCARSDGSSTYWGQGTLVTVSSASTKGPEVQLVESGGGLVQPGGSLRLSCAASGYTFTNYGMNWVRQAPGKGLEWVGWINTYTGEPTYAADFKRRFTFSLDTSKSTAYLQMNSLRAEDTAVYYCAKYPHYYGSSHWYFDVWGQGTLVTVSS
VL: DVLMTQTPLSLPVTPGEPASISCTSSQNIVHSNGNTYLEWYLQKPGQSPQLLIYKVSNRFSGVPDRFSGSGSGTDFTLKISRVEAEDVGVYYCFQVSHVPYTFGGGTKVEIKRTVAAPDIQMTQSPSSLSASVGDRVTITCSASQDISNYLNWYQQKPGKAPKVLIYFTSSLHSGVPSRFSGSGSGTDFTLTISSLQPEDFATYYCQQYSTVPWTFGQGTKVEIKR
B3 gave an EC50 [1, 5] of 0.193 nM and an EC50 [2, 6] of 1.02 nM.

B4: AB048: parent antibody, PGE2, SEQ ID 48/49 (antibody, V domains shown)
VH: EVQLVQSGAEVKKPGASVKVSCKASGYTFTKYWLGWVRQAPGQGLEWMGDIYPGYDYTHYNEKFKDRVTLTTDTSTSTAYMELRSLRSDDTAVYYCARSDGSSTYWGQGTLVTVSS
VL: DVLMTQTPLSLPVTPGEPASISCTSSQNIVHSNGNTYLEWYLQKPGQSPQLLIYKVSNRFSGVPDRFSGSGSGTDFTLKISRVEAEDVGVYYCFQVSHVPYTFGGGTKVEIKR
B4 showed an EC50 ([1]; parent antibody (cell spans both VD columns), read-out: PGE2 Neutralization EC50) of 0.017 nM and an EC50 ([2]; parent antibody (cell spans both VD columns), read-out: Direct Bind ELISA EC50 (PGE2 binding)) of 1.49 nM.

B5: DVD164: DVD-Ig construct listed in Table 4 (antibody)
VH: QVQLQESGPGLVKPSETLSLTCTVSGFSLIGYDLNWIRQPPGKGLEWIGIIWGDGTTDYNSAVKSRVTISKDTSKNQFSLKLSSVTAADTAVYYCARGGYWYATSYYFDYWGQGTLVTVSSASTKGPEVQLVQSGAEVKKPGASVKVSCKASGYTFTKYWLGWVRQAPGQGLEWMGDIYPGYDYTHYNEKFKDRVTLTTDTSTSTAYMELRSLRSDDTAVYYCARSDGSSTYWGQGTLVTVSS
VL: DIQMTQSPSSLSASVGDRVTITCRASQSISNNLNWYQQKPGKAPKLLIYYTSRFHSGVPSRFSGSGSGTDFTFTISSLQPEDIATYYCQQEHTLPYTFGQGTKLEIKRTVAAPDVLMTQTPLSLPVTPGEPASISCTSSQNIVHSNGNTYLEWYLQKPGQSPQLLIYKVSNRFSGVPDRFSGSGSGTDFTLKISRVEAEDVGVYYCFQVSHVPYTFGGGTKVEIKR
B5 showed an EC50 [1, 3] of 0.079 nM and an EC50 [2, 4] of 1.3 nM.

B6: DVD157: DVD-Ig construct listed in Table 4 (antibody)
VH: EVQLVQSGAEVKKPGASVKVSCKASGYTFTKYWLGWVRQAPGQGLEWMGDIYPGYDYTHYNEKFKDRVTLTTDTSTSTAYMELRSLRSDDTAVYYCARSDGSSTYWGQGTLVTVSSASTKGPQVQLVESGGGVVQPGRSLRLSCAASGFTFSVYGMNWVRQAPGKGLEWVAIIWYDGDNQYYADSVKGRFTISRDNSKNTLYLQMNGLRAEDTAVYYCARDLRTGPFDYWGQGTLVTVSS
VL: DVLMTQTPLSLPVTPGEPASISCTSSQNIVHSNGNTYLEWYLQKPGQSPQLLIYKVSNRFSGVPDRFSGSGSGTDFTLKISRVEAEDVGVYYCFQVSHVPYTFGGGTKVEIKRTVAAPEIVLTQSPDFQSVTPKEKVTITCRASQSIGSSLHWYQQKPDQSPKLLIKYASQSFSGVPSRFSGSGSGTDFTLTINSLEAEDAAAYYCHQSSSLPFTFGPGTKVDIKR
Molecule B6 has an EC50 [1, 5] of 0.217 nM and an EC50 [2, 6] of 1.23 nM.
